{"source": "paper PMC5668364", "about": "“Structure and functional dynamics of the mitochondrial Fe/S cluster synthesis complex” (Nature Communications, 2017)", "molecules": {"B1": {"name": "E. coli acyl carrier protein (ACP) (natural protein, UniProt P0A6A8 1-78, looked up)", "chain": "MSTIEERVKKIIGEQLGVKQEEVTNNASFVEDLGADSLDTVELVMALEEEFDTEIPDEEAEKITTVQAAIDYINGHQA", "modifications": "Ser36-linked phosphopantetheine with attached fatty acyl chain (12 carbons modelled; 14 carbons by mass spectrometry of dissolved crystals)", "notes": "E. coli acyl carrier protein; the acyl chain length is said to depend on the growth medium; also called E. coli ACP; A of (NIA)2; source: endogenous E. coli protein, co-purified with NFS1-ISD11 expressed in E. coli"}, "B2": {"name": "Chaetomium thermophilum CtNfs1 (enzyme)", "chain": "MANLAPSVLRQASRLATRSSSSTSSLFAAAPRRAATLLSRRAAIAPATHAHPSRRASRSYVTDTKADNAQAQTEAAVRLDSQELEKAEKSVPSFEAQNGSTTHVSPMADILKGATRMGEGQRPIYLDMQATTPVDPRVLDAMLPYYVGIFGNPHSRTHAYGWETERAVEKAREHIAALIGADPKEIIFTSGATESNNMSIKGVARFFGRTGKKRHIITSQTEHKCVLDSCRHLQDEGYEVTYLPVNNKGLINLDELRDAIRPDTALVSIMAVNNEIGVIQPIAEIGKICREKKVFFHTDGAQAVGKIPIDVNAMNIDLMSISSHKIYGPKGIGACYVRRRPRVRIEPIISGGGQERGLRSGTLAPALVVGFGEACRIAKEELEYDLKHVKRLSERLLKGVLSIECTHQNGDPENGYPGCVNVSFAYVEGESLLMALNDVALSSGSACTSASLEPSYVLRALGNSDENAHSSIRFGIGRFTTEAEIDYVVKAVQDRVGFLRELSPLWELVQEGVDLNTIEWTQH"}, "B3": {"name": "Chaetomium thermophilum CtIsu1-His6 (natural protein)", "chain": "MFSKTARAVSSRALASPLWSTAIPVTRPLSCQLAWPQTRQYHEKVLDHYSRPRNVGSLDKTDKSVGEGLVGAPACGDVMRLHIKVDPETKVISDVRFKTFGCGSAIASSSYLTELVRGMTLEQAAQVKNTQIAKELCLPPVKLHCSMLAEDAIKSAINNYYKKNPEARPTNLAGRGNNKLETASQSTQ"}}, "key": {"[1]": {"molecular_target": "human NFS1 of the NFS1-ISD11(-His10) complex for biochemistry and SAXS (human)", "assay": "SAXS; (NIA)2 complexes incubated with cysteine (buffer S1 with 5 mM Cys: 35 mM Tris-HCl pH 7.4, 150 mM NaCl), after size exclusion chromatography"}, "[2]": {"molecular_target": "B2", "assay": "SAXS; complexes of NFS1 with ISCU, FDX2 (reduced with dithionite) and/or frataxin mixed in 1:1, 1:1:1 ratios in buffer S1 in an anaerobic chamber, after size exclusion chromatography; rigid body modelling"}, "[3]": {"molecular_target": "T1, human ISD11, full length, no tag (human, UniProt Q9HD34 1-91)", "T1 construct": "human ISD11 (LYRM4), full length, plasmid pZM4; also called LYRM4; I of (NIA)2 and (NIAU)2; source: E. coli One Shot BL21 Star (DE3), co-expressed with NFS1, co-purified (Ni-NTA)", "T1 sequence (Q9HD34 whole entry)": "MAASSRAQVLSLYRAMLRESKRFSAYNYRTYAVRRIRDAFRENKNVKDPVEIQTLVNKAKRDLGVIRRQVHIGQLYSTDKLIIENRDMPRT", "assay": "crystal structure; (NIA)2 complex, 2.75 Å, space group R32; crystals from 100 mM MES pH 6.5, 0.3 M ammonium acetate, 20 mM calcium acetate, 20 mM CaCl2, 19% isopropanol, 12 °C", "conditions": "both partners purified"}, "[4]": {"molecular_target": "T2, human ISD11-His10 (human, UniProt Q9HD34 1-91)", "T2 construct": "human ISD11 (LYRM4); source: E. coli, co-expressed with NFS1, purified (Ni-Sepharose, gel filtration)", "T2 sequence (Q9HD34 whole entry)": "as above", "assay": "affinity purification with mass spectrometry; NFS1-ISD11(-His10) purified by Ni-Sepharose and gel filtration from E. coli grown in TB (energy-rich) medium; Orbitrap mass spectrometry of the trypsin-digested purified solution", "conditions": "partners not purified"}, "[5]": {"molecular_target": "the molecule itself", "assay": "SAXS; (NIA)2 complexes incubated with cysteine (buffer S1 with 5 mM Cys: 35 mM Tris-HCl pH 7.4, 150 mM NaCl), after size exclusion chromatography"}}, "note": "Like-named read-outs stand apart in the source and are kept apart here.", "data": [{"molecule": "human NFS1 of the NFS1-ISD11(-His10) complex for biochemistry and SAXS (enzyme)", "values": [{"measurement": "stoichiometry N", "setting": "[1]", "result": 2}]}, {"molecule": "Chaetomium thermophilum CtFdx2 (reduced ferredoxin) (natural protein)", "values": [{"measurement": "stoichiometry N", "setting": "[2]", "result": 1}]}, {"molecule": "B1", "values": [{"measurement": "binding result", "setting": "[3]", "result": "binds"}, {"measurement": "binding result", "setting": "[4]", "result": "binds"}]}, {"molecule": "B2", "values": [{"measurement": "stoichiometry N", "setting": "[5]", "result": 2}]}, {"molecule": "B3", "values": [{"measurement": "stoichiometry N", "setting": "[2]; both partners purified", "result": 1}]}]}
